{
  "source": "patent US20220160767A1",
  "about": "(CHILDREN S NATIONAL MEDICAL CENTER, published 2022)",
  "molecular_target": "T1, HLA-DRB1*11:01 (human, UniProt P01911 30-227; P01903 26-216)",
  "T1 construct": "whole, on cells; Class II molecule on irradiated, partially HLA-matched PHA-blasts; Only the DRB1 allele is printed; also called HLA-DR11",
  "experiment": "restriction testing: IFN-γ ELISpot of CSTs with partially HLA-matched PHA-blasts pulsed with peptide (indirect read-out)",
  "data": [
    {"binder": "LRGHLRIAGHHLGRC (also called LRGHLRIAGHHLGRC)", "note": "[Membrane peptide 37 (AA 145-160)]", "values": [
      {"measurement": "binding result", "result": "binds"}
    ]}
  ]
}
